Tests used:
Test in all cases: fluorescence polarisation
[1] = target: HIM-3 closure motif peptide, unmodified (wild type) (C. elegans)
[2] = target: HIM-3 closure motif peptide phosphorylated at Tyr279 (C. elegans)
[3] = target: HIM-3 closure motif peptide with the S282A substitution (C. elegans)

Kd [1]: 5.8 µM
Kd [2]: 16.1 µM
Kd [3]: 11.3 µM
Substance: HTP-2 protein (full length) (natural protein)

Source: paper doi:10.1101/2020.07.01.182063
